Assay results taken from the supplement of paper PMC10567573.

B1: SPATS1 (parent)
chain: YPEQSKGFHKAGSMLPPVNFSIVP

Variants of: B1
Assay: protein stability index of a GFP-peptide fusion (GPS, HEK-293T) (PSI 1-6); higher = more stable
Conditions: c terminus: a fixed tail appended
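Also: lentivirally expressed fusions sorted by FACS into six bins by GFP to DsRed ratio, PSI derived from sequencing read proportions per bin multiplied by bin number.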

Variant | protein stability index
YPEQKKGFHKAGSMLPPVNFSIVP | 2.49
YPEQLKGFHKAGSMLPPVNFSIVP | 2.15
YPEQMKGFHKAGSMLPPVNFSIVP | 2.37
YPEQNKGFHKAGSMLPPVNFSIVP | 1.99
YPEQPKGFHKAGSMLPPVNFSIVP | 2.15
YPEQQKGFHKAGSMLPPVNFSIVP | 2.55
YPEQRKGFHKAGSMLPPVNFSIVP | 2.67
YPEQTKGFHKAGSMLPPVNFSIVP | 2.23
YPEQVKGFHKAGSMLPPVNFSIVP | 2.45
YPEQWKGFHKAGSMLPPVNFSIVP | 2.18
YPEQYKGFHKAGSMLPPVNFSIVP | 2.1
YPEQSAGFHKAGSMLPPVNFSIVP | 1.92
YPEQSCGFHKAGSMLPPVNFSIVP | 2.38
YPEQSDGFHKAGSMLPPVNFSIVP | 2.29
YPEQSEGFHKAGSMLPPVNFSIVP | 2.41
YPEQSFGFHKAGSMLPPVNFSIVP | 2.1
YPEQSGGFHKAGSMLPPVNFSIVP | 2.09
YPEQSHGFHKAGSMLPPVNFSIVP | 1.71
YPEQSIGFHKAGSMLPPVNFSIVP | 1.86
YPEQSLGFHKAGSMLPPVNFSIVP | 1.75
YPEQSMGFHKAGSMLPPVNFSIVP | 2.26
YPEQSNGFHKAGSMLPPVNFSIVP | 1.91
YPEQSPGFHKAGSMLPPVNFSIVP | 2.17
YPEQSQGFHKAGSMLPPVNFSIVP | 1.71

Variant | protein stability index
YPEQSRGFHKAGSMLPPVNFSIVP | 1.71
YPEQSSGFHKAGSMLPPVNFSIVP | 2.56
YPEQSTGFHKAGSMLPPVNFSIVP | 1.92
YPEQSVGFHKAGSMLPPVNFSIVP | 1.67
YPEQSWGFHKAGSMLPPVNFSIVP | 1.9
YPEQSYGFHKAGSMLPPVNFSIVP | 1.93
YPEQSKAFHKAGSMLPPVNFSIVP | 2.45
YPEQSKCFHKAGSMLPPVNFSIVP | 1.94
YPEQSKDFHKAGSMLPPVNFSIVP | 2.86
YPEQSKEFHKAGSMLPPVNFSIVP | 1.63
YPEQSKFFHKAGSMLPPVNFSIVP | 2.12
YPEQSKHFHKAGSMLPPVNFSIVP | 1.43
YPEQSKIFHKAGSMLPPVNFSIVP | 2.34
YPEQSKKFHKAGSMLPPVNFSIVP | 2.39
YPEQSKLFHKAGSMLPPVNFSIVP | 2.24
YPEQSKMFHKAGSMLPPVNFSIVP | 2.2
YPEQSKNFHKAGSMLPPVNFSIVP | 2.09
YPEQSKPFHKAGSMLPPVNFSIVP | 1.71
YPEQSKQFHKAGSMLPPVNFSIVP | 1.73
YPEQSKRFHKAGSMLPPVNFSIVP | 2.92
YPEQSKSFHKAGSMLPPVNFSIVP | 1.9
YPEQSKTFHKAGSMLPPVNFSIVP | 3.08
YPEQSKVFHKAGSMLPPVNFSIVP | 1.86
YPEQSKWFHKAGSMLPPVNFSIVP | 1.7

Variant | protein stability index
YPEQSKYFHKAGSMLPPVNFSIVP | 2.14
YPEQSKGAHKAGSMLPPVNFSIVP | 3.6
YPEQSKGCHKAGSMLPPVNFSIVP | 2.78
YPEQSKGDHKAGSMLPPVNFSIVP | 4.19
YPEQSKGEHKAGSMLPPVNFSIVP | 3.69
YPEQSKGGHKAGSMLPPVNFSIVP | 3.58
YPEQSKGHHKAGSMLPPVNFSIVP | 3.07
YPEQSKGIHKAGSMLPPVNFSIVP | 3.44
YPEQSKGKHKAGSMLPPVNFSIVP | 3.32
YPEQSKGLHKAGSMLPPVNFSIVP | 2.9
YPEQSKGMHKAGSMLPPVNFSIVP | 2.43
YPEQSKGNHKAGSMLPPVNFSIVP | 3.83
YPEQSKGPHKAGSMLPPVNFSIVP | 3.39
YPEQSKGQHKAGSMLPPVNFSIVP | 3.39
YPEQSKGRHKAGSMLPPVNFSIVP | 3.17
YPEQSKGSHKAGSMLPPVNFSIVP | 3.57
YPEQSKGTHKAGSMLPPVNFSIVP | 3.18
YPEQSKGVHKAGSMLPPVNFSIVP | 2.86
YPEQSKGWHKAGSMLPPVNFSIVP | 3.05
YPEQSKGYHKAGSMLPPVNFSIVP | 1.97
YPEQSKGFAKAGSMLPPVNFSIVP | 2.1
YPEQSKGFCKAGSMLPPVNFSIVP | 1.82
YPEQSKGFDKAGSMLPPVNFSIVP | 2.94
YPEQSKGFEKAGSMLPPVNFSIVP | 2.81

Variant | protein stability index
YPEQSKGFFKAGSMLPPVNFSIVP | 4.31
YPEQSKGFGKAGSMLPPVNFSIVP | 2.13
YPEQSKGFIKAGSMLPPVNFSIVP | 2.38
YPEQSKGFKKAGSMLPPVNFSIVP | 2.56
YPEQSKGFLKAGSMLPPVNFSIVP | 1.66
YPEQSKGFMKAGSMLPPVNFSIVP | 2.14
YPEQSKGFNKAGSMLPPVNFSIVP | 2.75
YPEQSKGFPKAGSMLPPVNFSIVP | 2.19
YPEQSKGFQKAGSMLPPVNFSIVP | 2.51
YPEQSKGFRKAGSMLPPVNFSIVP | 2.42
YPEQSKGFSKAGSMLPPVNFSIVP | 2.4
YPEQSKGFTKAGSMLPPVNFSIVP | 2.16
YPEQSKGFVKAGSMLPPVNFSIVP | 2.13
YPEQSKGFWKAGSMLPPVNFSIVP | 3.39
YPEQSKGFYKAGSMLPPVNFSIVP | 2.21
YPEQSKGFHAAGSMLPPVNFSIVP | 1.85
YPEQSKGFHCAGSMLPPVNFSIVP | 3.44
YPEQSKGFHDAGSMLPPVNFSIVP | 2.54
YPEQSKGFHEAGSMLPPVNFSIVP | 2.58
YPEQSKGFHFAGSMLPPVNFSIVP | 1.57
YPEQSKGFHGAGSMLPPVNFSIVP | 1.52
YPEQSKGFHHAGSMLPPVNFSIVP | 1.44
